Source: PMC3128119

Target: T1, SmeT (UniProt Q8KLP4 1-219)
T1 sequence: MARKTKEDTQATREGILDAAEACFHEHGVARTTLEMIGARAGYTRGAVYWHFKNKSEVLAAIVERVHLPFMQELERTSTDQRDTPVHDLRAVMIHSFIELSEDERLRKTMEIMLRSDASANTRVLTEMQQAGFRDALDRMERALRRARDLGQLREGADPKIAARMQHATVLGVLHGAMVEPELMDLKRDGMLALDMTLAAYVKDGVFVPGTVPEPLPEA
Assay: EMSA; 0.2 uM SmeT, 2 nM DNA, no triclosan, 10 mM MgCl2; EMSA: 10 mM Tris-HCl pH 7.2, 50 mM KCl, 10 mM MgCl2, 1 mM EDTA, 50 ug/ml BSA, 1 mM DTT, 5% glycerol, 100 ug/ml poly(dI-dC), room temperature 20 min (+15 min with biocide); 6% gel at 4 C
Conditions: protein: recombinant; tags: none stated after intein-CBD self-cleavage (pTYB1); chain copies: 2; label: 5' 32P; blunt

B1: 30-bp smeT operator (dsDNA)
DNA 1: GTTTACAAACAAACAAGCATGTATGTATAT
DNA 2: ATATACATACATGCTTGTTTGTTTGTAAAC
- binding result: binds
